Experimental data as given in patent US20200095340A1.

What was measured:
[1] = target: biotinylated human DLL3 protein expressed as a human IgG1 fusion protein (human) (UniProt Q9NYJ7); test: Octet, several concentrations of trispecific (60, 20, 6.67, 2.22 nM), human DLL3
[2] = target: human DLL3 on DMS-153 cells (human) (UniProt Q9NYJ7); test: cell-based or functional assay
[3] = target: cynomolgus DLL3 protein (cynomolgus); test: Octet, single concentration of trispecific (60 nM), cynomolgus DLL3
cynomolgus DLL3 protein (cynomolgus), sequence (chain, as listed by the source): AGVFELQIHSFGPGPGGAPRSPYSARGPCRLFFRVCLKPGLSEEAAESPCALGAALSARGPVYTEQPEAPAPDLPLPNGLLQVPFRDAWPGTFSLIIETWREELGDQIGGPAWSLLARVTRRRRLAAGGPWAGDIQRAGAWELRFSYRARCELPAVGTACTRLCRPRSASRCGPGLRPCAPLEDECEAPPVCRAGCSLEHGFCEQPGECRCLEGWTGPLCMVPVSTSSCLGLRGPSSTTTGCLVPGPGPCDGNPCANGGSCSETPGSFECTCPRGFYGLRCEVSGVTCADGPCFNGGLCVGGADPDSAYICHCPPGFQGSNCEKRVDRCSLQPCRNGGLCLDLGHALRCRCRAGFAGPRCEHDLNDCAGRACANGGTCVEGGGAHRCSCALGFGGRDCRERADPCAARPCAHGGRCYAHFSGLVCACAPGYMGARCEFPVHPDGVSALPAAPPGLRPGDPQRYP

[4] = target: human DLL3 on DLL3 expressing cancer cell lines (human) (UniProt Q9NYJ7); test: cell-based or functional assay
human DLL3 on DLL3 expressing cancer cell lines (human), sequence (Q9NYJ7 27-618 limits assumed): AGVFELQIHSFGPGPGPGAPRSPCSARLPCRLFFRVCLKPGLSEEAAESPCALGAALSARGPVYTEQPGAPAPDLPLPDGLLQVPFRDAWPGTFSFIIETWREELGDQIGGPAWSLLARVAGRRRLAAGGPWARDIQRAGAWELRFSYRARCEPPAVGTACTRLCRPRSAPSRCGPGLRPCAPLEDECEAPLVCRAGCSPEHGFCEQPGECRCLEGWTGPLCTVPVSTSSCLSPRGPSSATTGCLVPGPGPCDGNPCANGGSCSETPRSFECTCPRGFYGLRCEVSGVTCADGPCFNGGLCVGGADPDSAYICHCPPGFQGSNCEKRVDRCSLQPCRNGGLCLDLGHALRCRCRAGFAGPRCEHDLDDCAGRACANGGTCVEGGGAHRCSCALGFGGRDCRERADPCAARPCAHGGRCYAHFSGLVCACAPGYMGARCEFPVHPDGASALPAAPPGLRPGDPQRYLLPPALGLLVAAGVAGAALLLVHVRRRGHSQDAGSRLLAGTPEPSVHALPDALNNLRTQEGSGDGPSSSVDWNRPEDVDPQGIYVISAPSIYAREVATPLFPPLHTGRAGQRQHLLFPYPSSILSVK

[5] = target: biotinylated version of human DLL3 protein expressed as a human IgG1 fusion protein (human) (UniProt Q9NYJ7); test: Octet BLI, biotinylated DLL3-IgG1 on streptavidin tips, single 50 nM
biotinylated version of human DLL3 protein expressed as a human IgG1 fusion protein (human), sequence (Q9NYJ7 27-492 limits assumed): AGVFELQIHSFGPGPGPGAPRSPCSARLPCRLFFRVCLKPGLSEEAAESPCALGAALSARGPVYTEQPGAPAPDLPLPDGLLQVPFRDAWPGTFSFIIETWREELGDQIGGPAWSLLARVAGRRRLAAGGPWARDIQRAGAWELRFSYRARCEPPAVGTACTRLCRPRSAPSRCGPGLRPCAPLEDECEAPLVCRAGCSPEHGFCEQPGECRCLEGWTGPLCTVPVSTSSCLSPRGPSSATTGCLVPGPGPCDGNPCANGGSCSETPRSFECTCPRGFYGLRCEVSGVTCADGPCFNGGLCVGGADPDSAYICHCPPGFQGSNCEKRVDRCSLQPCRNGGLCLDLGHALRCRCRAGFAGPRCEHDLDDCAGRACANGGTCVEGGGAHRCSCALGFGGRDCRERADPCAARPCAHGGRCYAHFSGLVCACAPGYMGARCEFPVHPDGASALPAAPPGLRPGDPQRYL

biotinylated human DLL3 protein expressed as a human IgG1 fusion protein (human), sequence (Q9NYJ7 27-492): as the sequence (Q9NYJ7 27-492 limits assumed) above
human DLL3 on DMS-153 cells (human), sequence (Q9NYJ7 27-618 limits assumed): as the sequence (Q9NYJ7 27-618 limits assumed) above

Kd [1] [nM]	DMS-153 TDCC EC50 (conditioned medium, human T cells) [2] [pM]	TDCC EC50 (CHO expressed, purified protein; method of Example 2, DMS-153 cells) [2] [pM]	Kd [3] [nM]	further results	Binder
4.4	59	120	3.4	–	anti-DLL3 trispecific protein, DLL3 binder 2E02 (protein, part only; not given: anti-CD3 fragment and anti-albumin domain, part only) chain, part: EVQLVESGGGLVQPGGSLTLSCVASGSTSAINAMGWYRRAPGKQRELVAGISSDGSKVYVDSVKGRFTISRDNAKNSVYLQMNSLRAEDTAVYYCYYFRTVSGSSQRYWGQGTLVTVSSGGGGSGGGSGGGGSGGGSHHHHHH
3.5	51	170	3.6	–	anti-DLL3 trispecific protein, DLL3 binder 1A011 (protein, part only; not given: anti-CD3 fragment and anti-albumin domain, part only) chain, part: EVQLVESGGGLVQPGGSLTLSCVASGSTSSINAIGWYRRAPGKQRELVAGISSDGSKVYIDSVKGRFTISRDNAKNSVYLQMNSLRAEDTAVYYCYYFRTVSGSSYRYWGQGTLVTVSSGGGGSGGGSGGGGSGGGSHHHHHH
–	–	–	–	TDCC EC50, DMS-153 cells, purified CHO protein [4]: 41 nM; fold more potent in TDCC than DH43 [4]: 6.6 fold	anti-DLL3 trispecific protein containing 2E05-M106Q (protein, part only; not given: CD3 binder and albumin binder, part only) chain, part: EVQLVESGGGLVQPGGSLTLSCVASGSPSSINAYGWYRRAPGKQRELVAGISSDGSKVYSDSVKGRFTISRDNAKNSVYLQMNSLRAEDTAVYYCYYFRTVSGSSQSYWGQGTLVTVSSGGGGSGGGSGGGGSGGGSHHHHHH
–	–	–	–	TDCC EC50, DMS-153 cells, purified CHO protein [4]: 54 nM; fold more potent in TDCC than DH6 [4]: 4.4 fold	anti-DLL3 trispecific protein containing 4D09-M34L (protein, part only; not given: anti-CD3 fragment and anti-albumin sdAb, part only) chain, part: EVQLVESGGGLVQPGGSLTLSCAASGSSVKFLSLAWYRQAPGKKRELVAGISADGSTDYILSVKGRFTISRDNAKNSVYLQMNSLRAEDTAVYYCYAYEWTTRYTYWGQGTLVTVSSGGGGSGGGSGGGGSGGGSHHHHHH
–	–	–	–	TDCC EC50, DMS-153 cells [4]: 28 nM; fold increase in TDCC potency over DH43 [4]: > 7 fold	anti-DLL3 trispecific protein containing 1H012 (protein, part only; not given: anti-CD3 fragment and anti-albumin sdAb, part only) chain, part: EVQLVESGGGLVQPGGSLTLSCVASGSTSSINAMGWYRRAPGKQRELVAGISSDGSKVYVDSVKGRFTISRDNAKNSVYLQMNSLRAEDTAVYYCYYFRTVSGSSMPYWGQGTLVTVSSGGGGSGGGSGGGGSGGGSHHHHHH
2.9	28	63	4.3	–	anti-DLL3 trispecific protein, DLL3 binder 1H012 (protein, part only; not given: CD3 binder and albumin binder, part only) chain, part: EVQLVESGGGLVQPGGSLTLSCVASGSTSSINAMGWYRRAPGKQRELVAGISSDGSKVYVDSVKGRFTISRDNAKNSVYLQMNSLRAEDTAVYYCYYFRTVSGSSMPYWGQGTLVTVSSGGGGSGGGSGGGGSGGGSHHHHHH
4.4	31	96	5.2	–	anti-DLL3 trispecific protein, DLL3 binder 2H02 (protein, part only; not given: anti-CD3 fragment and anti-albumin domain, part only) chain, part: EVQLVESGGGLVQPGGSLTLSCVASGSTSSINAMAWYRRAPGKQRELAAGISSDGSKVYADSVKGRFTISRDNAKNSVYLQMNSLRAEDTAVYYCYYFHTVSGSSMRYWGQGTLVTVSSGGGGSGGGSGGGGSGGGSHHHHHH
3.5	33	72	4.8	–	anti-DLL3 trispecific protein, DLL3 binder 2E05 (protein, part only; not given: CD3 binder and albumin binder, part only) chain, part: EVQLVESGGGLVQPGGSLTLSCVASGSPSSINAYGWYRRAPGKQRELVAGISSDGSKVYSDSVKGRFTISRDNAKNSVYLQMNSLRAEDTAVYYCYYFRTVSGSSMSYWGQGTLVTVSSGGGGSGGGSGGGGSGGGSHHHHHH
3.9	36	–	5.7	–	anti-DLL3 trispecific protein, DLL3 binder 4H011 (protein, part only; not given: CD3 fragment and albumin sdAb, part only) chain, part: EVQLVESGGGLVQPGGSLTLSCAASGSSVSRLSMAWYRQAPGKKRELVAGISVDGSTDYIDSVKGRFTISRDNAKNSVYLQMNSLRAEDTAVYYCYAYRWTTRLTYWGQGTLVTVSSGGGGSGGGSGGGGSGGGSHHHHHH
8.1	52	60	8.2	–	anti-DLL3 trispecific protein, DLL3 binder 4D09 (protein, part only; not given: anti-CD3 fragment and anti-albumin domain, part only) chain, part: EVQLVESGGGLVQPGGSLTLSCAASGSSVKFLSMAWYRQAPGKKRELVAGISADGSTDYILSVKGRFTISRDNAKNSVYLQMNSLRAEDTAVYYCYAYEWTTRYTYWGQGTLVTVSSGGGGSGGGSGGGGSGGGSHHHHHH
–	–	–	–	TDCC EC50, DMS-153 cells [4]: 36 nM; fold increase in TDCC potency over DH6 [4]: > 8 fold	anti-DLL3 trispecific protein containing 4H011 (protein, part only; not given: CD3 binder and albumin binder, part only) chain, part: EVQLVESGGGLVQPGGSLTLSCAASGSSVSRLSMAWYRQAPGKKRELVAGISVDGSTDYIDSVKGRFTISRDNAKNSVYLQMNSLRAEDTAVYYCYAYRWTTRLTYWGQGTLVTVSSGGGGSGGGSGGGGSGGGSHHHHHH
4	52	–	5.7	–	anti-DLL3 trispecific protein, DLL3 binder 3C04 (protein, part only; not given: CD3 binder and albumin binder, part only) chain, part: EVQLVESGGGLVQPGGSLTLSCAASGSHVSFLSMAWYRQAPGKKRELVAGISADGPTDYIDSVKGRFTISRDNAKNSVYLQMNSLRAEDTAVYYCYAYRWDTRYTYWGQGTLVTVSSGGGGSGGGSGGGGSGGGSHHHHHH
–	–	–	–	Kd [5]: 2.3 nM	anti-DLL3 trispecific protein containing 4A010 (protein, part only; not given: anti-CD3 and anti-albumin domains, part only) chain, part: EVQLVESGGGLVQPGGSLTLSCAASGSSVRFLSMAWYRQAPGKKRELVAGISADGSTVYIDSVKGRFTISRDNAKNSVYLQMNSLRAEDTAVYYCYAYRWTTRYKYWGQGTLVTVSSGGGGSGGGSGGGGSGGGSHHHHHH
–	–	–	–	Kd [5]: 64 nM	anti-DLL3 trispecific protein containing 4H05 (protein, part only; not given: CD3 binder and albumin binder, part only) chain, part: EVQLVESGGGLVQPGGSLTLSCAASGSSVSRLSMAWYRQAPGKKRELVAGISARGSTDYIDSVKGRFTISRDNAKNSVYLQMNSLRAEDTAVYYCYAYRWTTRSTYWGQGTLVTVSSGGGGSGGGSGGGGSGGGSHHHHHH
